Measured values: patent US20210052695A1 (CAMBRIDGE ENTERPRISE, published 2021)
One block for each binder: values may come before it. Ends that are not written are not given here. * marks the point of attachment. TAMRA = 5-carboxytetramethylrhodamine, CN(C)c1ccc2c(-c3ccc(C(=O)*)cc3C(=O)[O-])c3ccc(N(C)C)cc3[o+]c2c1

Experiments:
[1] = biological target: T1, HLA-A*68:02 expressed on the cell surface (HeLaM cells, or HeLaM-HLA-ABC^KO cells reconstituted with … (human)); assay: flow cytometry of fluorescent peptide on IFN-γ treated HeLaM cell lines, 15 min at 37° C.
T1 construct: whole, on cells; Carries the cells' own, unnamed peptides before exchange; also called HLA-A*A68:02

[2] = biological target: T1, HLA-A*68:02 expressed on the cell …; assay: cell-based peptide exchange: no dissociation of fluorescent peptide from HLA-A*68:02 on HeLa^KOTAPBPR^WT cells
[3] = biological target: T1, HLA-A*68:02 expressed on the cell …; assay: flow cytometry with PeTe-4 on HeLaM, HeLaM-HLA-ABC^KO and HLA-A*68:02 reconstituted cells, 100 nM protein, 15 min at 37° C.
[4] = biological target: T2, UDP-glucose:glycoprotein glucosyltransferase 1 (UGT1) (UniProt Q9NYU2 43-1555); assay: immunoprecipitation of the intracellular TAPBPR pool, Western blot for UGT1
T2 construct: Detected by Western blot in TAPBPR immunoprecipitates
T2 sequence (Q9NYU2 43-1555 limits assumed): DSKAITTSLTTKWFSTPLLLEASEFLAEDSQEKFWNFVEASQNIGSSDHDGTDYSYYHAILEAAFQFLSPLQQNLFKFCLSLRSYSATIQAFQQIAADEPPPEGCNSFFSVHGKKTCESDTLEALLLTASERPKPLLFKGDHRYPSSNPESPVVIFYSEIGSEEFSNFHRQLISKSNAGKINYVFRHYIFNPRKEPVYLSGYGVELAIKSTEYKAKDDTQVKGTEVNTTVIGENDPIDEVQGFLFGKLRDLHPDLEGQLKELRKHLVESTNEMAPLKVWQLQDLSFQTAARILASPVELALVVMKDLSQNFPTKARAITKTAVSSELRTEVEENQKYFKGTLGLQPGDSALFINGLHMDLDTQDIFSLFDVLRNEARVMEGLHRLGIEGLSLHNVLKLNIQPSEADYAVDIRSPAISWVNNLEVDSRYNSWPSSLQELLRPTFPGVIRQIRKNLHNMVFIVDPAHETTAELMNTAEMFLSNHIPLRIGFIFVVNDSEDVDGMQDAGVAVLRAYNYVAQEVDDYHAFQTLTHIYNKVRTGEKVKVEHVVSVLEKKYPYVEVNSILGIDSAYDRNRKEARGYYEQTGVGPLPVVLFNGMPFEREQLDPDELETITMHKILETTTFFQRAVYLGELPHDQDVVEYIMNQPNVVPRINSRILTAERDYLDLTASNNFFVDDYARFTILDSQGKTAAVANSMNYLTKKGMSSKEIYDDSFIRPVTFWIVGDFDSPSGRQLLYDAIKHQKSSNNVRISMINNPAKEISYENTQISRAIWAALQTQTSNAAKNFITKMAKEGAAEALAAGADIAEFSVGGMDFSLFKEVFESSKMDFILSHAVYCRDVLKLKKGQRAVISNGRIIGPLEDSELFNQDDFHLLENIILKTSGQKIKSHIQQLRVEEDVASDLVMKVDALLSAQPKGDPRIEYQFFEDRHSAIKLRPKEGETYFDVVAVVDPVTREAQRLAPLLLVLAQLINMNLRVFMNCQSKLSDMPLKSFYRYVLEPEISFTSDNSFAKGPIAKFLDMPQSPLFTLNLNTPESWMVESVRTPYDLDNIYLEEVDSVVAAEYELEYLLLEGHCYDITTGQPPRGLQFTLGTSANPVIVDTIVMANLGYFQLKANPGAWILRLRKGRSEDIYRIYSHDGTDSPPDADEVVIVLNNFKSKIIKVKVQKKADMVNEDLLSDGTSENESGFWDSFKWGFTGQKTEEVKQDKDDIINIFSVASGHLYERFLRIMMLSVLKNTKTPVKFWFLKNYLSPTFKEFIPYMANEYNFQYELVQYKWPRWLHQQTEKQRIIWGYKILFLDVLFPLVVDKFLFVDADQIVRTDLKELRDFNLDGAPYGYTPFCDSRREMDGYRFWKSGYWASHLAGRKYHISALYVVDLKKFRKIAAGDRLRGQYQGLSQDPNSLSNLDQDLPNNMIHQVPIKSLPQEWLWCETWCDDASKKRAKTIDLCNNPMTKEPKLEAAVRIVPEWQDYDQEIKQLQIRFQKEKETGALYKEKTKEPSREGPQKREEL

[5] = biological target: T1, HLA-A*68:02 expressed on the cell …; assay: flow cytometry of fluorescent peptide on transduced HeLaM-TAPBPR^KO cells
[6] = biological target: T1, HLA-A*68:02 expressed on the cell …; assay: flow cytometry of TAPBPR on HeLaM cells without surface GFP
[7] = biological target: T1, HLA-A*68:02 expressed on the cell …; assay: cell-based peptide exchange on HeLa^KOTAPBPR^WT cells, displacement of fluorescent peptide, flow cytometry
[8] = biological target: T1, HLA-A*68:02 expressed on the cell …; assay: flow cytometry, time course with 10 nM fluorescent peptide (FIG. 1e)
[9] = biological target: T1, HLA-A*68:02 expressed on the cell …; assay: flow cytometry, dose response of fluorescent peptide on HeLaM cell lines (FIG. 1d)

binding result [2]: no binding
B2: EGVSEQSNG (unlabeled derivative of … with the anchor residues at positions 2 and 9 replaced by glycine) (peptide)
peptide: EGVSEQSNG
notes: also called ETVΔ2/9

binding result [4]: binds
B4: full-length TAPBPR^WT over-expressed in HeLaM-TAPBPR^KO cells (other)
chain: KPHPAEGQWRAVDVVLDCFLVKDGAHRGALASSEDRARASLVLKQVPVLDDGSLEDFTDFQGGTLAQDDPPIIFEASVDLVQIPQAEALLHADCSGKEVTCEISRYFLQMTETTVKTAAWFMANVQVSGGGPSISLVMKTPRVAKNEVLWHPTLNLPLSPQGTVRTAVEFQVMTQTQSLSFLLGSSASLDCGFSMAPGLDLISVEWRLQHKGRGQLVYSWTAGQGQAVRKGATLEPAQLGMARDASLTLPGLTIQDEGTYICQITTSLYRAQQIIQLNIQASPKVRLSLANEALLPTLICDIAGYYPLDVVVTWTREELGGSPAQVSGASFSSLRQSVAGTYSISSSLTAEPGSAGATYTCQVTHISLEEPLGASTQVVPPERRTALGVIFASSLFLLALMFLGLQRRQAPTGLGLLQAERWETTSCADTQSSHLHEDRTARVSQPS
notes: V41_G151_V169 polymorphisms as used in the studies; also called surface TAPBPR; HeLa^KOTAPBPR^WT

binding result [6]: no binding (tested: 100 nM)
B6: TAPBPR-GFPNB fusion protein (soluble TAPBPR fused to a nanobody specific for GFP, long linker) (other)
chain: KPHPAEGQWRAVDVVLDCFLVKDGAHRGALASSEDRARASLVLKQVPVLDDGSLEDFTDFQGGTLAQDDPPIIFEASVDLVQIPQAEALLHADCSGKEVTCEISRYFLQMTETTVKTAAWFMANVQVSGGGPSISLVMKTPRVAKNEVLWHPTLNLPLSPQGTVRTAVEFQVMTQTQSLSFLLGSSASLDCGFSMAPGLDLISVEWRLQHKGRGQLVYSWTAGQGQAVRKGATLEPAQLGMARDASLTLPGLTIQDEGTYICQITTSLYRAQQIIQLNIQASPKVRLSLANEALLPTLICDIAGYYPLDVVVTWTREELGGSPAQVSGASFSSLRQSVAGTYSISSSLTAEPGSAGATYTCQVTHISLEEPLGASTQVVPPERRHVGGGGSGGGGSGGGGSTSQVQLVESGGALVQPGGSLRLSCAASGFPVNRYSMRWYRQAPGKEREWVAGMSSAGDRSSYEDSVKGRFTISRDDARNTVYLQMNSLKPEDTAVYYCNVNVGFEYWGQGTQVTVSSK
notes: 21 aa leader left out; also called sTAPBPR-linker-GFPNB; sTAPBPR-GFP sdAb

binding result [7]: binds
B7: YVVPFVAKV (unlabeled peptide) (peptide)
peptide: YVVPFVAKV

binding result [7]: binds
B9: ETVSEQSNV (unlabeled HLA-A*68:02-binding peptide) (peptide)
peptide: ETVSEQSNV

More lines, now with the values behind:

B1: EGVSK*QSNG (fluorescent non-binding variant with the anchor residues mutated) (peptide)
peptide: EGVSK(TAMRA)QSNG
notes: also called ETVΔ2/9
binding result [1]: no binding (tested: 10 nM)

B3: soluble TAPBPR^WT (secreted luminal domain of human TAPBPR, C-terminally His-tagged) (other)
chain: KPHPAEGQWRAVDVVLDCFLVKDGAHRGALASSEDRARASLVLKQVPVLDDGSLEDFTDFQGGTLAQDDPPIIFEASVDLVQIPQAEALLHADCSGKEVTCEISRYFLQMTETTVKTAAWFMANVQVSGGGPSISLVMKTPRVAKNEVLWHPTLNLPLSPQGTVRTAVEFQVMTQTQSLSFLLGSSASLDCGFSMAPGLDLISVEWRLQHKGRGQLVYSWTAGQGQAVRKGATLEPAQLGMARDASLTLPGLTIQDEGTYICQITTSLYRAQQIIQLNIQASPKVRLSLANEALLPTLICDIAGYYPLDVVVTWTREELGGSPAQVSGASFSSLRQSVAGTYSISSSLTAEPGSAGATYTCQVTHISLEEPLGASTQVVPPERR
notes: Made in 293T cells with the PiggyBac system and purified on Ni Sepharose; also called sol WT; exogenous TAPBPR^WT; not shown: C-terminal His tag
binding result [3]: binds

B5: YVVPFVAK*V (fluorescent variant of YVVPFVAKV) (peptide)
peptide: YVVPFVAK(TAMRA)V
fold less exogenous peptide binding on tapasin^PM cells than on TAPBPR^PM cells [5]: ~10 times

B8: ETVSK*QSNV (fluorescent variant of the neoantigen …) (peptide)
peptide: ETVSK(TAMRA)QSNV
fold increase in fluorescent peptide bound to HeLaKO-TAPBPR^WT against the HeLaM and HeLaM^KO controls after 60 min [8]: 21 fold
fold less efficient peptide binding to cells lacking surface TAPBPR than TAPBPR-promoted binding [9]: ~120 times
fold less exogenous peptide binding on tapasin^PM cells than on TAPBPR^PM cells [5]: ~10 times
